Test results as given in patent publication US20090181009A1 (ARCA BIOPHARMA, published 2009).

T1: human NTB-A (full-length, on cells) (human, UniProt Q96DU3 22-332)
T1 sequence: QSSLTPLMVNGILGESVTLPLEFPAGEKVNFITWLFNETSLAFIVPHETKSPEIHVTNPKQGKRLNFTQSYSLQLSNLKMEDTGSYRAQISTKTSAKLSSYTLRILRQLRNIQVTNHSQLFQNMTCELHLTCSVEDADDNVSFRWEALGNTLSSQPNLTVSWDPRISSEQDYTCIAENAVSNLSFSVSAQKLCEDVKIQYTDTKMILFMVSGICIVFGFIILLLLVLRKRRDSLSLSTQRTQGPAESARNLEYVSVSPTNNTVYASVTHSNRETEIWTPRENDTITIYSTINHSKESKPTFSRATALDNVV

T2: NTB-A extracellular domain fused to a C-terminal tag of V5-His (NTB-A-ECD-V5His) (human)
T2 construct: Produced in HEK-293 cells; also called recombinant NTB-A protein; NTB-A V5-6His
T2 chain: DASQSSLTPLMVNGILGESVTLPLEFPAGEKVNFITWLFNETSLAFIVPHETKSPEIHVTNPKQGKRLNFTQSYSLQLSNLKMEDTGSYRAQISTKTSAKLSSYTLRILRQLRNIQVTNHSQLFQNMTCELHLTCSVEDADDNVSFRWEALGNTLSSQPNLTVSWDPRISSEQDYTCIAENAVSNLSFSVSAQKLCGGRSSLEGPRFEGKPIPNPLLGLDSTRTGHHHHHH

T3: NTB-A Δ5 deletion construct (human, UniProt Q96DU3 22-64)
T3 construct: Expressed in 293 cells and read by flow cytometry
T3 chain: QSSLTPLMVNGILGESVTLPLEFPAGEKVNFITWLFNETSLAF

T4: NTB-A Δ4 deletion construct (human, UniProt Q96DU3 22-94)
T4 construct: Expressed in 293 cells and read by flow cytometry
T4 sequence: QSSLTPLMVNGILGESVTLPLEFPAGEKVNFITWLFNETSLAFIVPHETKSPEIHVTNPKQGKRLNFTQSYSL


Tests used:
[1] = biological target: T1, human NTB-A (full-length, on cells); experiment: cell-based or functional assay
[2] = biological target: T2, NTB-A extracellular domain fused to a …; experiment: SPR (BIAcore), mAb captured by anti-mouse mAb, antigen in solution, 25° C.
Procedure: (§1) Kinetic rate constants (kₐ and kd) were determined using surface plasmon resonance and affinities (KD) were then calculated from the rate constants (kd/kₐ). Surface plasmon resonance was carried out on a BIAcore system (Biacore International AB, Uppsala, Sweden). […] Antigen was diluted to a starting concentration of 46 nM and tested for binding to the mAb samples using a 3-fold dilution series. Each of 5 concentrations was tested twice except the highest concentration which was tested 5 times in total, two times with a short dissociation of 300 seconds followed by three times with a dissociation of 60 minutes. The data sets from the long dissociation experiments were globally fit with the shorter […] experiments to determine binding constants for the interactions. The analysis was carried out in HBS, pH 7.4 buffer at 25° C. (Canziani et al, Anal. Biochem. 352:301-307 […]).

[3] = biological target: T2, NTB-A extracellular domain fused to a …; experiment: SPR (BIAcore), mAb captured by anti-mouse mAb, antigen in solution, 25° C.; KD = kd/ka
Procedure: as §1

[4] = biological target: T3, NTB-A Δ5 deletion construct; experiment: flow cytometry on 293 cells expressing the deletion construct
[5] = biological target: T4, NTB-A Δ4 deletion construct; experiment: as above

| EC50 of CDC on cells from CLL patients [1] [ng/mL] | koff [2] [s⁻¹] | kon [2] [M⁻¹ s⁻¹] | Kd [3] [nM] | binding result [4] | binding result [5] | Binder | EC50 of complement-dependent cytotoxicity (CDC) on CA46 cells [1] [ng/mL] |
| --- | --- | --- | --- | --- | --- | --- | --- |
| 9 to 15 | 0.0005 | 404000 | 1.25 | no binding | no binding | anti-NTB-A monoclonal antibody 480.12 (antibody, mouse IgG2b, V domains shown, Murine IgG2b from a hybridoma; also called ATCC Deposit No. PTA-7832) VH: QIQLVQSGPELKKPGETVKISCKASGYTFTNFGMNWVKQAPGKGLKWMGWINTYSGEATYADDFKGRFAFSLETSASTAFLQISNLKNEDTATYFCARRGGTAEFDYWGQGTPLTVSSA VL: EIVLTQSPTTVAASPGEKITITCSASSSISSNFLHWYQQKPGFSPKLLIYRTSKLASGVPGRFSGSGSGTSYSLTIGTMEAEDVATYYCQQGIYMPLTVGAGTKLELKRA |  |
|  |  |  |  | no binding | no binding | anti-NTB-A monoclonal antibody 994.1 (antibody, mouse IgG2b, V domains shown, Murine IgG2b from a hybridoma; also called ATCC Deposit No. PTA-7831) VH: QIQLVQSGPDLKNPGKTVKISCKASGYTFTNFGMNWVKQSPERGLKWMGWINTYNGKPTYADDFKGQFAFSLETSATTAYLQINNLKNEDTAAYFCAKRGGTVDFGYWGQGTTLTVSS VL: EVVLTQSPTTMAASPGEKITVTCSASSPISSNFLHWYQQKPGFSPKLFIYRTSILASGVPARFSGSGSGTSFSLTIGAMEAEDVAAYYCQQGIYMPLTFGAGTKLELKR | ~10 |
